Assay results taken from patent US20070184522A1, “Cell death modulation via antagonists of Fasl and Fas activation” (University of Pittsburgh of the Commonwealth System of …, priority 2004, published 2007).

Tests used:
[1] = tested on: liver (hepatocyte apoptosis); experiment: Jo2 (Fas agonist) induced liver apoptosis in Balb/c mice; assay type: in vivo; details: for percentage of apoptotic cells by TUNEL staining: Balb/c mice liver, Jo2, AlphaMet 100 micrograms or YLGA polypeptides 300 micrograms per mouse; for enzymatic activity of caspase-3 in liver lysates: compared to Jo2 only group
Method: For FIG. 5a, Balb/c mice (10 per group) were injected with Jo2 (2.5 μg/g of mouse body weight) in the presence of AlphaMet or polypeptides as indicated, and analyzed for the extent of hepatocyte apoptosis and liver damage by immunohisological and biochemical techniques. The percentage of TUNEL positive was determined in multiple liver lobes of each liver in random fields counting at least 500 hepatocytes in a double-blind manner. Frame A: Normal mouse liver; Frame B: Jo2 treated mouse liver; Frame C: Jo2 plus AlphaMet treated mouse; Frame D: Jo2 plus YLGA 12 mer; Frame E: Jo2 and YLGA tetramer treatment; Frame F: Jo2 and YLGA mutated AlphaMet, respectively. These studies were repeated three times with identical outcome. FIG. 5b graphically presents the quantification of hepatocyte apoptosis TUNEL positive nuclei. The data were analyzed by One-way ANOVA and P<0.05 was considered significant. For FIG. 5c, an equal amount of livers were subjected to Caspase 3 activity assay using DEVD-AFC as a substrate and DEVD-CHO as an inhibitor, as recommended by the manufacturer. The data are the mean and SE and were repeated in three independent experiments. The data were analyzed by One-way ANOVA and P<0.05 was considered significant.
Animal studies. Male Balb/c mice weighing 30 grams were purchased from Jackson Laboratory and used according to an IACUC approved protocol. Induction of liver apoptosis and determination of Caspase 3 activity and histological evaluation were performed as described previously (Wang et al., 2002). Animals (10 per group) were anesthetized by isoflurane and injected with Jo2 (Pharmingen 2.5 microgram/gram body weight) with or without AlphaMet (100 micrograms recombinant AlphaMet or 300 micrograms of synthetic YLGA polypeptides) in a total of 100 micro liters of saline per mouse. Control groups (N=10 per group) consisted of saline only, Jo2 only, and Jo2 plus mutated AlphaMet or scrambled polypeptide. During the experiment which lasted approximately 6 hours, animals were closely monitored every 10 to 15 minutes and if they appeared to be moribund were immediately sacrificed and liver tissue and was removed for biochemical and histological studies.
It is well known in the literature that the liver is one of the most sensitive organs to Fas mediated apoptosis. Injection of the Fas agonist Jo2 antibody, which causes mice to experience Fas aggregation resulting in massive hepatocyte apoptosis, fulminant hepatic failure, and death within hours. This model was used to test if AlphaMet and the YLGA polypeptides could protect livers from Fas-induced apoptosis. Given the fact that AlphaMet blocked Fas trimerization and Fas micro-aggregation, and the fact that Fas oligomerization is essential in Fas signaling, it was reasonable to suspect that AlphaMet could block the Fas mediated apoptosis in vivo. Balb/c mice were used in these experiments. Groups of animals (n=10) were injected systemically with Jo2 ([…] of body weight) with or without purified recombinant AlphaMet, synthetic 12 mer YLGA polypeptide (HHIYLGATNYIY, SEQ ID NO:26), or their control counterparts (N-terminally truncated AlphaMet, YLGA mutated recombinant AlphaMet or scrambled 12 mer polypeptide) as described in the materials and methods. Mice were sacrificed within 6 hours or sooner if they were moribund and their livers were subjected to biochemical determination of Caspase-3 activity and histological analyses (i.e. TUNEL staining).

Hepa 1-6 cells = experiment: Fas-induced apoptosis in Hepa 1-6 cells (LDH activity assay); assay type: cell-based, mouse; details: for FasL induced apoptosis: serum deprived Hepa 1-6 cells, crosslinked mouse Fas ligand 1 μg/ml overnight, LDH
Method: For FIG. 4a, Jurkat cells (1.5×10^5) were overnight treated in triplicate with 5 ng/ml of crosslinked human Fas ligand with or without 5 μg/ml of recombinant AlphaMet or 1 μg/ml of the indicated polypeptides. Percent apoptosis was determined by Trypan Blue staining using a hemocytometer. The data are representative and were repeated at least four times. […] The 17 kDa fragment of cleaved Caspase 3 is visualized by this antibody. The blot was reprobed for β-actin as a loading control. For FIG. 4c, serum deprived Hepa 1-6 cells (3×10^5) were overnight treated with 1 μg/ml of crosslinked mouse Fas ligand with or without AlphaMet or the indicated polypeptide. Media were collected and centrifuged to pellet the dead cells. […] The data in FIG. 4c represents three independent experiments.
Apoptosis assay. Pre-washed Jurkat cells in RPMI 1640 medium containing 1% FBS were inoculated in 96-wells at a density of 10^5 cells per well. Apoptosis was induced by cross-linked human Fas-ligand (R&D Systems) at a concentration of 0.5 ng/ml or Anti-Fas (human, activating) clone CH11 (Upstate biotechnology) at a concentration of 500 ng /ml. Hepa 1-6 cells were overnight starved before induction of apoptosis. The apoptosis in Hepa 1-6 was induced by anti-mouse Fas antibody Jo2 (200 ng/ml) or human recombinant Fas-ligand. The extent of cell viability and apoptosis was determined by several methods such as Trypan Blue stain, flow cytometry, LDH assay, and Hoechst staining.

Row | Molecule | percentage of apoptotic cells by TUNEL staining [1] | enzymatic activity of caspase-3 in liver lysates ([1]; Balb/c mice) | FasL induced apoptosis (Hepa 1-6 cells) | liver hemorrhage (gross and microscopic) ([1]; Balb/c mice, Jo2 injection, within 6 hours) | apoptosis induced by the Fas agonist Jo2 (Hepa 1-6 cells; Hepa 1-6 cells) | resistance to Fas killing of stable cell lines expressing the protein (Hepa 1-6 cells; Hepa 1-6 stable lines versus control vector clones)
1 | HHIYLGATNYIY [12 mer] | 25% | significant reduction | significantly inhibited FasL induced apoptosis |  |  | 
2 | YLGA [YLGA 4 mer] | 40% |  | significantly inhibited FasL induced apoptosis |  |  | 
3 | alpha subunit of Met (AlphaMet), amino acid residues 1 to 306, His-tagged (receptor, mouse) MKAPTVLAPGILVLLLSLVQRSHGECKEALVKSEMNVNMKYQLPNFTAETPIQNVVLHGHHIYLGATNYIYVLNDKDLQKVSEFKTGPVLEHPDCLPCRDCSSKANSSGGVWKDNINMALLVDTYYDDQLISCGSVNRGTCQRHVLPPDNSADIQSEVHCMFSPEEESGQCPDCVVSALGAKVLLSEKDRFINFFVGNTINSSYPPGYSLHSISVRRLKETQDGFKFLTDQSYIDVLPEFLDSYPIKYIHAFESNHFIYFLTVQKETLDAQTFHTRIIRFCSVDSGLHSYMEMPLECILTEKRRKRHHHHHH | 18% | significant reduction | significantly inhibited FasL induced apoptosis | little or no sign of hemorrhage | efficiently inhibited | dramatic resistance to Fas killing
